Values belong to the molecule of their own block, whether it stands above or below them.
Key:
MiaPaCa-2 cells = assay: MiaPaCa-2-bearing hHSC-HIS mouse model; assay type: in vivo, hHSC reconstituted ASID mice
From the text: (§1) We used the advanced severe immunodeficiency (ASID) mice those were implanted with human […] hematopoietic stem cells (HSCs). MiaPaCa-2 and H460 cells were then subcutaneously injected into hHSC reconstituted ASID mice to evaluate the anti-tumor effects of CHI3L1 mAb clone R4-54 on lung and pancreatic cell lines in vivo. […] Tumor and peripheral blood were also harvest for further immune cell population examinations. […] In addition, peripheral blood samples of two tumor-bearing hHSC-HIS mice models were collected for analysis of immune cell populations. […] Data was presented as means±S.D. P values refer to two-tailed Student's t test. * P<0.05, ** P<0.01, *** P<0.001.

H460 cells = assay: H460-bearing hHSC-HIS mouse model; assay type: in vivo, hHSC reconstituted ASID mice
From the text: as §1

mouse CHI3L1 antigen = mouse CHI3L1 antigen (Mus musculus, UniProt Q61362); assay: Direct ELISA of phage clones, cross-reaction with mouse CHI3L1; assay type: binding; details: FIG. 1C
mouse CHI3L1 antigen, sequence (Q61362 30-389): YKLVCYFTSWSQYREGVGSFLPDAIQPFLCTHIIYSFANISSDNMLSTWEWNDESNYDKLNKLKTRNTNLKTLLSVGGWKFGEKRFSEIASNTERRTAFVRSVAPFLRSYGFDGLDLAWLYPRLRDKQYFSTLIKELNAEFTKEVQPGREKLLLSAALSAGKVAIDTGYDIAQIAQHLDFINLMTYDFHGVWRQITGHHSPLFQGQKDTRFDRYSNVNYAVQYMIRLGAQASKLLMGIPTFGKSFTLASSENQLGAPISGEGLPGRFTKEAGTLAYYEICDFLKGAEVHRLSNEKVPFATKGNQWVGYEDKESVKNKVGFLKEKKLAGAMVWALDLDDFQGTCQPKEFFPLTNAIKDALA

mouse rCHI3L1 = mouse rCHI3L1 (Mus musculus, UniProt Q61362); assay: ELISA binding to mouse rCHI3L1; details: FIG. 10B
mouse rCHI3L1, sequence (Q61362 30-389): as above
Procedure: FIGS. 10A to 10B show binding curves of ELISA assay indicated the binding of R4-4 (circle), R4-54 (square), 293R3-2 (triangle), and 293R3-4 (reverse triangle) to (FIG. 10A) human rCHI3L1 and (FIG. 10B) mouse rCHI3L1.
(§2) Thus, we established orthotopic animal models by directly injecting murine pancreatic cancer KPPC-luc cells (5×10^6) into pancreas of immunocompetent (C57BL/6J) mice. All mice were divided into two groups and treated with IgG isotype antibody as control, or mAb clone R4-4 (5 mg/kg) by intravenous (i.v.) injection via tail-vein at indicated time points (Day 3, Day 7, Day 10, and Day 14). Mice were sacrificed to verify tumor information on day 28. […] Data was presented as means±S.D. P values refer to two-tailed Student's t test. * P<0.05, ** P<0.01.

KPPC-luc cells [1] = assay: KPPC-luc orthotopic C57BL/6J mice model, mono-treatment; assay type: in vivo
Procedure: as §2

[2] = Mouse muscle fiber area analysis (cachexia) in KPPC-luc orthotopic model; assay type: in vivo, C57BL/6J mice
Procedure: Since pancreatic patients often suffer from cachexia, the cancer-related muscle loss disorder (Henderson et al. 2018; Yoo et al. 2021), we further performed the mouse muscle fiber area analysis in IgG and R4-4 (10 mg/kg) groups. […] The value of the cross-sectional cutoff area was set to 1800, representing severe muscle loss (FIG. 15D).

KPPC-luc cells [3] = assay: KPPC-luc orthotopic C57BL/6J mice model, mAb and chemotherapy combination; details: for tumor weight: day 29
[4] = immunohistochemical staining, CD86 and CD163

B1: R4-54: fully human anti-CHI3L1 IgG1 mAb, Table 1 No. 34; heavy chain SEQ ID NO: 33, light chain SEQ ID NO: 34 (antibody, listed as Homo sapiens)
VH: QVQLVESGGGVVQPGRSLRLSCAASGFTFSSYGMHWVRQAPGKGLEWVAVISYDGSDKDYADSVKGRFTISRDNSKNTLFLQMNSLRAEDTAVYYCARDDYDSTYYFDNWGQGTTVTVSS
light: SYELTQPPSVSVSPGQTASITCSGDILADQYASWYQQKPGQSPVLVIYHDTKRPSGVPERFSGSTSGNTATLTISGTQAMDEAAYYCQAWDINTAWVFGGGTQLTVLGQPKAAPSVTLFPPSSEELQANKATLVCLISDFYPGAVTVAWKADSSPVKAGVETTTPSKQSNNKYAASSYLSLTPEQWKSHRSYSCQVTHEGSTVEKTVAPTECS
- growth of subcutaneous xenografts (MiaPaCa-2 cells; 5 mg/kg i.v. every five days from day 14, day 32): significantly delayed the growth
- M2-like TAM and Treg populations in tumor-infiltrating immune cells (MiaPaCa-2 cells; flow cytometry): M2-like TAM and Treg populations were decreased
- percentages of M1 macrophages and CD8+ T cells in tumor-infiltrating immune cells (MiaPaCa-2 cells; flow cytometry): increased the percentages of M1 macrophages and CD8+ T cells
- intratumoral M1 to M2 ratio and CD8 T cells (MiaPaCa-2 cells; [4]): M1 to M2 ratio and CD8 T cells were both increased
- peripheral blood CD8+ T cells and Tregs (MiaPaCa-2 cells; peripheral blood): increased CD8+ T cells and decreased Tregs
- growth of subcutaneous xenografts (H460 cells; 5 mg/kg i.v. every five days from day 6, day 27): significantly delayed the growth
- M2-like TAM and Treg populations in tumor-infiltrating immune cells (H460 cells; flow cytometry): M2-like TAM and Treg populations were decreased
- percentages of M1 macrophages and CD8+ T cells in tumor-infiltrating immune cells (H460 cells; flow cytometry): increased the percentages of M1 macrophages and CD8+ T cells
- intratumoral M1 to M2 ratio and CD8 T cells (H460 cells; [4]): M1 to M2 ratio and CD8 T cells were both increased
- peripheral blood CD8+ T cells and Tregs (H460 cells; peripheral blood): increased CD8+ T cells and decreased Tregs

- recognition of mouse CHI3L1 by phage clones (mouse CHI3L1 antigen): cross-react with mouse CHI3L1
B2: R4-4: fully human anti-CHI3L1 IgG1 mAb, Table 1 No. 9; heavy chain SEQ ID NO: 9, light chain SEQ ID NO: 10 (antibody, listed as Homo sapiens)
VH: EVQLLESGGGLLQPGGSLRLSCAASGLTFRNYAMTWVRQAPGKGLEWVSTISGNGDETFYADSVKGHFTISRDNSKDTVYLQMNSLRAEDTAVYYCAKGGHYSFFDSWGQGSPVTVSS
light: NFMLTQPHSVSESPGKTVTISCTRSSGSIASNYVQWYQQRPGSSPTTVIYEDNQRPSGVPDRFSGSIDSSSNSASLTISGLKTEDEADYYCQSYDSSNYVFGTGTKVTVLGQPKANPTVTLFPPSSEELQANKATLVCLISDFYPGAVTVAWKADGSPVKAGVETTKPSKQSNNKYAASSYLSLTPEQWKSHRSYSCQVTHEGSTVEKTVAPAECS
- cross-reaction with murine CHI3L1 (mouse rCHI3L1): the only one that could cross-react with murine CHI3L1
- tumor weight (KPPC-luc cells [1]; 5 mg/kg i.v. Day 3, 7, 10, 14, day 28, vs IgG): significant reduction of tumor weight
- body weight (KPPC-luc cells [1]; 5 mg/kg i.v., vs IgG): without apparently body weight change
- M1/M2 ratio (KPPC-luc cells [1]; flow cytometry, 5 mg/kg i.v.): increased the M1/M2 ratio
- tumor infiltrating M2-like TAMs (CD206+) (KPPC-luc cells [1]; flow cytometry, 5 mg/kg i.v.): decreased
- tumor infiltrating Treg (CD45+, Foxp3+) populations (KPPC-luc cells [1]; flow cytometry, 5 mg/kg i.v.): decreased
- muscle fiber area ([2]; R4-4 10 mg/kg compared to IgG): larger muscle fiber area
- muscle fibers below the cutoff value ([2]; R4-4 10 mg/kg, cross-sectional cutoff area 1800): 30.4%
- tumor weight (KPPC-luc cells [3]; GEM 25 mg/kg, R4-4 10 mg/kg, Abraxane 2.5 mg/kg, i.p. day 14, 20, 25): 2.61 g
- tumor weight (KPPC-luc cells [3]; R4-4 15 mg/kg i.p. day 14, 20, 25): 1.74
- Treg (CD4+, CD25+, Foxp3+) (KPPC-luc cells [3]; R4-4 15 mg/kg, flow cytometry): significant decrease of Treg
- angiogenesis level indicated by CD31 (KPPC-luc cells [3]; all treated groups (R4-4 10 or 15 mg/kg)): largely reduced
- tumor-infiltrating M1-like TAMs (CD86+, CD11b+) and M1/M2 ratio (KPPC-luc cells [3]; flow cytometry): increased M1-like TAMs
- tumor-infiltrating M2-like TAMs (CD206+, CD11b+) (KPPC-luc cells [3]; flow cytometry): decreased M2-like TAMs
